The labels stand for the following.
B1: TPR t1 (parent)
chain: GACCAAUCUGCCCUCAGAGCUCGAGAACAUCUUCGGAUGCAGAGGAGGCAGGCUUCGGUGGCGCGAUAGCGCCAACGUCCUCAACCUCCAAUGCAUCCCACCACAUGAUGAUGCCUGAAGAGCCUUGGUUUUUUG

In this data set the parent is B1. The data set can be described thus: polymerase ribozyme fitness, log enrichment relative to wild type (log ratio); higher = more active; in vitro selection for triplet polymerase activity. The gist of the method: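 Streptavidin-bead capture of gel-excised extended constructs, followed by RT-PCR, closed a single triplicate in vitro selection round. That round began by annealing PCR-built, transcribed mutant libraries of each subunit of a heterodimeric triplet polymerase ribozyme with a biotinylated primer, the partner subunit and triplets, then incubating them frozen at −7 °C. After Illumina sequencing of inputs and outputs, genotypes needed ≥10 input reads and ≥1 read per output. Fitness is the base-2 logarithm of genotype enrichment over wild-type enrichment, using inverse-variance-weighted replicate averages.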
As for GACCAAUCUGCCCUCAGAGCUCUAGAACAUCUUCGGAUGCAGAGGAGGCAGGCUUCGGUGGCGCGAUAGCGCCAACGUCCUCAACCUCCAAUGCAUCCCACCACAUGAUGAUGCCUGAAAAGCCUUGGUUUUUUG [G23U G120A], the “polymerase ribozyme fitness (log ratio)” value was -6.57. The result for GACCAAUCUGCCCUCAGAGCUCAAGAACAUCUUCGGAUGCAGAGGAGGCAGGCUUCGGUGGCGCGAUAGCGCCAACAUCCUCAACCUCCAAUGCAUCCCACCACAUGAUGAUGCCUGAAGAGCCUUGGUUUUUUG [G23A G77A] reads -6.34. Next, GACCAAUCUGCCCUCAGAGCUCGGGAACAUCUUCGGAUGCCGAGGAGGCAGGCUUCGGUGGCGCGAUAGCGCCAACGUCCUCAACCUCCAAUGCAUCCCACCACAUGAUGAUGCCUGAAGAGCCUUGGUUUUUUG [A24G A41C]: -2.27; GACCAAUCUGCCCUCAGAGCUCGCGAACAUCUUCGGAUGCAGAGGAGGCCGUCUUCGGUGGCGCGAUAGCGCCAACGUCCUCAACCUCCAAUGCAUCCCACCACAUGAUGCUGCCUGAAGAGCCUUGGUUUUUUG [A24C A50C G52U A111C]: -6.93. The result for GACCAAUCUGCCCUCAGAGCUCAAGAACAUCUUCGGAUGCAGAGGAGGCAAGCUUCGGUGGCGCGAUAGCGCCAACGUCCUCAACCUCCAAUGCAUCCCACCACAUGAUGGUGCCUGAAGAGCCUUGGUUUUUUG [G23A G51A A111G] reads -6. As to GACCAAUCUGCCCUCAGAGCUCGGGAACAUCUUCGGAUGUAGAGGAGGCAGGCUUCGGUGGGGCGAUAGCGCCAACGUCCUCAACCUCCAAUGCAUCCCACCACAUGAUGAUGCCUGAAGAGCCUUGGUUUUUUG [A24G C40U C62G], the “polymerase ribozyme fitness (log ratio)” value was -3.54. Turning to GACCAAUCUGCCCUCAGAGCUCUAGAACAUCUUCGGAUGCAGAGGAGGCAGGCUUCGGUGGCGCGAUAGCGCCAACGUCCUCAACCUCCUAUGCAUCCCACCACAUGAUGAUGCCUGAAGAGCCUUGGUUUUUUG [G23U A90U], the “polymerase ribozyme fitness (log ratio)” value is -6.86. GACCAAUCUGCCCUCAGAGCUCGGGAACAUCUUCGGAUGCAGAGGAGGCAGGCUUCGGUGGCGCGAUAGCGCCAACGUCCUCAACCUCCAAUGCAUCCCACCACAUGAUGGUGCCUGAAGAGCCUUGGUUUUUUG [A24G A111G]: the “polymerase ribozyme fitness (log ratio)” value is -2.06. Next, GACCAAUCUGCCCUCAGAGCUCUAGAACAUCUUCGGAUGCAGAGAAGGCAGGCUUUGGUGGCGCGAUAGCGCCAACGUCCUCAACCUCCAAUGCAUCACACCACAUGAUGAGGCCUGAAGAGCCUUGGUUUUUUG [G23U G45A C56U C98A U112G]: -6.47; GACCAAUCUGCCCUCAGAGCUCGGGAACAUCUUCGGAUGCAGAGGAGGCAGGCUUCGGUGGCGCGAUAGCGCCAACGUCCUCAACCUCCUAUGCAUCCCACCACAUGAUGAUGCCUGAAGAGCCUUGGUUUUUUG [A24G A90U]: -2.52. As to GACCAAUCUGCCCUCAGAGCUCAAGAACAUCUUCGGAUGCAGAGGAGGCAGGCUUCGGUGGCGGGAUAGCGCCAACGUCCUCAACCUCCAAUGCAUCCCACCACAUGAUGAUGCUUGAAGAGGCUUGGUUUUUUG [G23A C64G C115U C123G], the “polymerase ribozyme fitness (log ratio)” value is -6.62. Regarding GACCAAUCUGCCCUCAGAGCUCAAGAACAUCUUCGGAUGCAGAGGAGGCAGGUUUCGGUGGCGCGAUAGCGCCAACGUCCUCAACCUCCAAUGCAUCCCACCACAUGAUGAUGCCUGAAGAGCCUUGGUUUUUUG [G23A C53U], the “polymerase ribozyme fitness (log ratio)” value is -5.33. The result for GACCAAUCUGCCCUCAGAGCUCAAGAACAUCUUCGGAUGCAGAGGAGGCAGGCUUCGGUGGCGCGAUAUCGCCAACGUCCUCAACCUCCAAUUCAUCCCACCACAUGAUGAUGCCUGAAGAGCCUUGGUUUUUUG [G23A G69U G93U] reads -4.63; that for GACCAAUCUGCCCUCAGAGCUCCAGGACAUCUUCGGAUGCAGAGGAGGCAGGCUUCGGUGGCGCGAUAGCGCCAACGUCCUCAACCUCCAAUGCAUCUCACCACGUGAUGAUGGCUGAAGAGCCUUGGUUUUUUG [G23C A26G C98U A105G C114G], -7.07. On to GACCAAUCUGCCCUCAGAGCUCCAGAACAUCUUCGGAUGCAGAGGAGGCAGGCUUCGGUGGCGCGAUAACGCCAACGUCCUCAACCUCCAAUGCAUCCCACCACAUGAUGAUGCCUGAAAUGUCUUGGCUUUUUG [G23C G69A G120A A121U C123U U129C], for which the “polymerase ribozyme fitness (log ratio)” value was -6.52. The result for GACCAAUCUGCCCUCAGAGCUCUAGAACAUCUUCGGAUGCAGAGGAGGCAGGCUUCGGUGGCGCGAUAGCGCCAACGUCCUCAACCUCCAAUGCAUCCCACCACAUGAUGAGGUCUGAAGAGCGCUGGUUUUUUG [G23U U112G C114U C124G U125C] reads -7.12. Next, GACCAAUCUGCCCUCAGAGCUCUAGGACAUCUUCGGUUGCAGAGGAGGCAGGCUUCGGUGGCGCGAUAUCGCCAACGUCCUCAACCUCCAAUGCAUCCCACCACAUGAUGAUGCCUGAAGAGCCUUGGUUUUUUG [G23U A26G A37U G69U]: -5.18; GACCAAUCUGCCCUCAGAGCUCGCGAACAUCUUCGGAUGCAGAGGAGGCAUGCUUCGGUGCCGCGAUAGCGCCAACGUACUCAACCUCCAAUGCAUCCCACAACAUGAUUAUGCCUGAAGAGCCUUGGUUUUUUG [A24C G51U G61C C79A C102A G110U]: -6.53. Regarding GACCAAUCUGCCCUCAGAGCUCCAGAACAUCUUCGGAUGCAGAGGAGGGACGCUUCGGUGUCGCGAUAGCGCCAACGUCCUCAACCUCCAAUGCAUCCCACCACAUGAUGAUGCCUUAAGAGCCUUGCUUUUUUG [G23C C49G G51C G61U G117U G128C], the “polymerase ribozyme fitness (log ratio)” value was -6.88.

For GACCAAUCUGCCCUCAGAGCUCCAGAACAUCUUCGGAUGCAGAGGAGGCAGGCUUCGGUGGCGCGAUAGGGCCAACGUCCUCAACCUCCAAUGCAUCCCACCACAUGAUGAUGCCUGAAGAGCCUUGGUUUUUUG [G23C C70G], the “polymerase ribozyme fitness (log ratio)” value was -7.47. Consider GACCAAUCUGCCCUCAGAGCUCUAGAACAUCUUCGGAUGCAGAGGAGGCAGGCUUCGGUGGCCCGAUAGCGCCAACGUCCUCAACCUCCAAUGCAUCCCACCACAUGAUGAUGCCUGAAGAGCCUUGGUUUUUUG [G23U G63C], for which the “polymerase ribozyme fitness (log ratio)” value was -6.19.

The record behind these values is the RNAGym collection of RNA variant scans (doi:10.1073/pnas.2313332121).
